T1: hGal3 peptide 6 (human)
T1 peptide: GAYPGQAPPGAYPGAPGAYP

T2: hGal3 peptide 7 (human)
T2 peptide: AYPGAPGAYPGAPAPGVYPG

T3: hGal3 peptide 4 (human)
T3 peptide: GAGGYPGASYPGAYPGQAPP

B1: 846T.1H2 (antibody, V domains shown)
VH: QIQLVQSGPELKKPGETVKISCKASGYTFTNYGMNWVKQAPGKGLKWMGWINTNTGEPTYAEEFKGRFAFSLETSASTAYLQINNLKNEDTATYFCATGGGNWDFDYWGQGTTLTVSS
VL: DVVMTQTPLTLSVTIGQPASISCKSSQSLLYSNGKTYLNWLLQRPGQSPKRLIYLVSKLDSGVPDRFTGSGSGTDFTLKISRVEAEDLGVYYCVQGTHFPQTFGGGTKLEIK
notes: murine antibody
B2: 4G2.2G6 (antibody, V domains shown)
VH: QIQLVQSGPDLKKPGETVKISCKASGYTFTTYVMSWVKQAPGKDLKWMGWINTHSGVPTYADDFKGRFDFSLETSANTAFLQINNLKNEDTATYFCTRDGNDGDAMDNWGQGTSVTVSS
VL: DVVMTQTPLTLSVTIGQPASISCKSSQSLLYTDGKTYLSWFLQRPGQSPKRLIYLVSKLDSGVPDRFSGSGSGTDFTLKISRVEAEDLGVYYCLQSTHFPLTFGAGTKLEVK
notes: murine antibody
B3: 24D12.2H9 (antibody, V domains shown)
VH: QVQLKQSGPGLVQPSQSLSITCTVSGFSLTSYGVHWVRQAPGKGLEWLGVIWSGGSTDYNAAFMSRLSISKDNSKSQVFFKMNSLQADDTAIYYCAKSPDGYDVAWFGYWGQGTLVTVSA
VL: DIVMTQSHKFMSTSVGDRVSITCKASQDVRTAVAWYQQKPGQSPKLLIYWASTRHTGVPDRFTGSGSGTDFTLTLSNVQSEDLADYFCQQYSSYPWTFGGGTKLEIK
notes: murine antibody
B4: 19B5.2E6 (antibody, V domains shown)
VH: QIQLVQSGPELKKPGETVKISCKASGYTFTTYAMSWVKQAPGKGLKWMGWINTYSGVPTYADDLKGRFAFSLETSASTAYLQINNLKNEDTATYFCARGPYAMDYWGQGTSVTVSS
VL: DIQMTQTTSSLSASLGDRVTISCSASQGINNYLNWYQQKPDGTVKLLIYYASSLHSGVPSRFSGSGSGTDYSLTISNLEPEDIATYYCQQYSQVPYTFGSGTKLEIK
notes: murine antibody
B5: 20H5.A3 (antibody, V domains shown)
VH: B4 VH with T17S, T28A, A33G, K38Q, I51V, Y60C, L64F, K87R
VL: B4 VL with S22N, G28D, N30S, A51T, H55L, Y87F, Q93K, V94L, K103H
notes: murine antibody
B6: 23H9.2E4 (antibody, V domains shown)
VH: B4 VH
VL: B4 VL
notes: murine antibody
B7: 6H6.2D6 (antibody, V domains shown)
VH: B4 VH with A33G, G49A, L64F, K87T
VL: B4 VL with N30S, A51T, Q93E, V94L
notes: murine antibody
B8: 3B11.2G2 (antibody, V domains shown)
VH: QIQLVQSGPELKKPGETVKISCKTSGYKFKTYVMSWVKQAPGKALKWMGWINTYSGVPTYADDFKGRFAFSLETSASTAYLEIINLKNEDTATYFCARDGNYGDPMDYWGQGTSVTVSS
VL: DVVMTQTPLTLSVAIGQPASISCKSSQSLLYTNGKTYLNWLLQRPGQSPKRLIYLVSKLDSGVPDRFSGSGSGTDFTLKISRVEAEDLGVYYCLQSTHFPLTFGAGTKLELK
notes: murine antibody; also called 3B11.2D2
B9: 13A12.2E5 (antibody, V domains shown)
VH: B8 VH
VL: DVVMTQTPLTLSVAIGQPASISCKSSQSLLYTNGKTYLNWLLQRPGQSPKRLIYLLSKLDSGVPDRFSASGSGTDFTLKISRVEAEDLGVYYCLQSTHFPLTFGAGTKLEMK
notes: murine antibody
B10: 13G4.2F8 (antibody, V domains shown)
VH: QVQLQQPGAELVKPGASVKLSCKASGYTFTSYWMHWVKQRPGQGLEWIGMIHPNSGSTDYNEKFKNKATLNVDKSSSTAYIQLSSLTSEDSAVYYCTRWGIYYYARDYWGQGTTLTVSS
VL: DIVMTQSQKFMSTSVGERVSITCKASQNVGTNVAWYQQKAGQSLELLIYGASNRHTGVPDRFTGSGSGTDFTLTITNVQSEDMTNYFCEQYSNFPLTFGAGTKLELK
notes: murine antibody
B11: 13H12.2F8 (antibody, V domains shown)
VH: QIQLVQSGPELKKPGETVKISCKASGYTFTTYGMSWVKQAPGKGLKWMGWINTYSGVPTYADDFKGRFAFSLETSASTAYLQINNLKNEDTATYFCAVPYEYDGAYWGQGTLVTVSA
VL: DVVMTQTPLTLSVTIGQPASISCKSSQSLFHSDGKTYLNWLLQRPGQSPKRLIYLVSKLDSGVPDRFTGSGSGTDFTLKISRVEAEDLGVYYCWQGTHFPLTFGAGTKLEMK
notes: murine antibody
B12: 14H10.2C9 (antibody, V domains shown)
VH: B11 VH with S35G, G44D, N84S, A97S, V98T
VL: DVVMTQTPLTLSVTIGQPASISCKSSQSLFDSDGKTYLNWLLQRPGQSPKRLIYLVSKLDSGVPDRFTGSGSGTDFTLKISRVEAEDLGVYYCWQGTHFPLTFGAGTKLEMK
notes: murine antibody
B13: 19D9.2E5 (antibody, V domains shown)
VH: B11 VH with S35G, A76T, T91M, V98T
VL: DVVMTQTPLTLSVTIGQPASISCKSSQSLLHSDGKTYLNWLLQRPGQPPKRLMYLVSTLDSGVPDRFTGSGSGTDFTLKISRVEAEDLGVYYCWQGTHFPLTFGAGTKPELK
notes: murine antibody
B14: 2D10.2B2 (antibody, V domains shown)
VH: QVQLQQSGPELVKPGASVKISCKASGYTFTDYYINWVKQRPGQGLEWIGWIYPGSNDTKYNEKFKGKATLTVDTSSSTAYMQLGSLTSEDSAVYFCANYFGCSGWFFDVWGTGTTVTVSS
VL: DIVMTQAAFSNPVTLGTSASISCRSSKSLLHSDGITYLYWYLQRPGQSPQLLIYRMSNLASGVPDRFSGSGSGTDFTLRISRVEAEDVGVYYCAQMIEFPLTFGAGTILELK
notes: murine antibody
B15: 4A11.2B5 (antibody, V domains shown)
VH: QVQLQQSGPELVKPGASVKISCKASGYSFTNYYIHWVKQRPGQGLEWIGWIYPGSGNTNYNEKFKGKATLTADTSSSTTNMQLSSLTSEDSAVYYCSTAPGGFDVWGSGTTVTVSS
VL: B14 VL with I97L, I108K
notes: murine antibody; parent of IMT006-1 and IMT006-5
B16: 12G5.D7 (antibody, V domains shown)
VH: QVQLKQSGAELVRPGASVKLSCKASGYTFTDYYINWVKQRPGQGLEWIARIYPGTGNTDYNEKFKGRATLTAEKSSSTAYMQLSSLTSEDSAVYFCARFAYYYGSGGYFDYWGHGTTLTVSS
VL: DILMTQSPSSMSVSLGDTVSITCHASQGINSNMGWLQQKPGKSFKGLIYHATNLEDGVPSRFSGSGSGADYSLTISSLESEDFADYYCVQYAQFPPTFGSGTKLEIK
notes: murine antibody
B17: 846.2H3 (antibody, V domains shown)
VH: QIQLVQSGPELKKPGETVKISCKASGYTFTNYGMNWVKQAPGKGLKWMGWINTYTGEPSYADDFKGRFAFSLETSASTAYLQINNLKNEDMATYFCARWGGYDGDYYAMDYWGQGTSVTVSS
VL: NIMMTQSPSSLAVSAGEKVTMSCKSSQSVLYSSNQKNYLAWYQQKPGQSPKLLIYWASTRESGVPDRFTGSGSGTDFTLTISSVQPEDLAVYYCHQYLSSLTFGAGTKLELK
notes: murine antibody
B18: 846.1F5 (antibody, V domains shown)
VH: B17 VH
VL: B17 VL
notes: murine antibody
B19: IMT001-4 (antibody, IgG4, V domains shown)
VH: QVQLVQSGSELKKPGASVKVSCKASGYTFTNYGMNWVRQAPGQGLKWMGWINTNTGEPTYVEEFTGRFVFSLETSVSTAYLQISSLKAEDTAVYFCAPYDNFFAYWGQGTTVTVSS
VL: DIVLTQSPLSLPVTPGEPASISCRSSKSLLYKDGKTYLNWFLQKPGQSPQLLIYLMSTHASGVPDRFSGSGSGTDFTLKISRVEAEDVGVYYCQQLVDYPLTFGGGTKLEIKR
notes: also called HuIMT001-4
B20: IMT006-5 (antibody, V domains shown)
VH: QVQLVQSGAEVKKPGASVKVSCKASGYSFTNYYMHWVRQAPGQRLEWMGWIYPGSGNTNYNEKFQGRVTITADTSASTAYMELSSLRSEDTAVYYCSTAPGGFDVWGQGTTVTVSS
VL: DIVMTQTPLSLSVTPGQPASISCKSSKSLLHSDGITYLYWYLQKPGQSPQLLIYRMSNLASGVPDRFSGSGSGTDFTLKISRVEAEDVGVYYCAQMLEFPLTFGQGTKLEIKR
notes: humanized antibody derived from 4A11.2B5
B21: IMT006-8 (antibody, V domains shown)
VH: B20 VH with M34I, I70L, A79T
VL: B20 VL with T7S, S12P, Q17E, K24R
notes: humanized antibody
B22: IMT006-1 (antibody, V domains shown)
VH: B20 VH with R44G, I70M, A76I, S85R, E89D
VL: B20 VL
notes: humanized antibody derived from 4A11.2B5; also called HuIMT006-1

Where a chain is given by its changes, count along the chain named. A value given as a limit tells only on which side of the number the result lay.

The first experiment addresses T4, Human Galectin-3 protein (Acro Biosystems, GA3-H5129) (human, UniProt P17931 2-250).
T4 construct: Bought protein; also called hGal3; Gal3; not shown: linker-spaced 6-histidine tag
Briefly: ELISA, hGal3 coated, antibody 3 ug/mL, competitor hTIM3. A general note: In an ELISA, binding on a coated surface is turned into a signal by an enzyme label.
Regarding B1, the “GAL3-TIM3 Blocking @ 3 ug/mL” value came out at 81%.

With B2, the “GAL3-TIM3 Blocking @ 3 ug/mL” value came out at 48%.

For the molecule B3, the “GAL3-TIM3 Blocking @ 3 ug/mL” value was 0%.

Consider B4, for which the “GAL3-TIM3 Blocking @ 3 ug/mL” value came out at 61%.

Turning to B5, the “GAL3-TIM3 Blocking @ 3 ug/mL” value was found to be 81%.

Consider B6, for which the “GAL3-TIM3 Blocking @ 3 ug/mL” value stood at 80%.

Turning to B7, the “GAL3-TIM3 Blocking @ 3 ug/mL” value was 82%.

Turning to B8, the “GAL3-TIM3 Blocking @ 3 ug/mL” value amounted to 33%.

For B9, the “GAL3-TIM3 Blocking @ 3 ug/mL” value is 35%.

Turning to B10, the “GAL3-TIM3 Blocking @ 3 ug/mL” value stood at 0%.

Turning to B11, the “GAL3-TIM3 Blocking @ 3 ug/mL” value is 57%.

As to B12, the “GAL3-TIM3 Blocking @ 3 ug/mL” value came to 44%.

As for B13, the “GAL3-TIM3 Blocking @ 3 ug/mL” value was 34%.

B14: the “GAL3-TIM3 Blocking @ 3 ug/mL” value was 86%.

B15: the “GAL3-TIM3 Blocking @ 3 ug/mL” value was found to be 48%.

B16: the “GAL3-TIM3 Blocking @ 3 ug/mL” value worked out at 12%.

Turning to B17, the “GAL3-TIM3 Blocking @ 3 ug/mL” value was 100%.

In the case of B18, the “GAL3-TIM3 Blocking @ 3 ug/mL” value is 90%.

The next experiment addresses T4, Human Galectin-3 protein (Acro …). In words: ELISA, hGal3 coated, competitor hTIM3 (FIG. 24).
In the case of B3, the “reduction of TIM3-GAL3 binding” value is at most 25%.

For the molecule B10, the “reduction of TIM3-GAL3 binding” value was at most 25%.

Turning to B16, the “reduction of TIM3-GAL3 binding” value was at most 25%.

Another experiment addresses T1, hGal3 peptide 6. Briefly: peptide ELISA, 20-mer library (Epitope Mapping).
Consider B8, for which the binding result was “binds”.

As for B9, the binding result was “binds”.

Turning to B11, the binding result was “binds”.

As for B12, the binding result was “binds”.

As to B13, the binding result is on record as “binds”.

Consider B14, for which the binding result is listed as “binds”.

On to B15, for which the binding result is given as “binds”.

Another experiment concerns the target T2, hGal3 peptide 7. Briefly: peptide ELISA, 20-mer library (Epitope Mapping).
Regarding B11, the binding result is given as “binds”.

As for B12, the binding result is listed as “binds”.

In the case of B13, the binding result is “binds”.

A further experiment addresses T3, hGal3 peptide 4. In words: peptide ELISA, 20-mer library (Epitope Mapping).
With B2, the binding result is on record as “binds”.

As for B8, the binding result is on record as “binds”.

Consider B9, for which the binding result is on record as “binds”.

The next experiment addresses T4, Human Galectin-3 protein (Acro …). In words: SPR Biacore T200, antibody captured, Galectin-3 analyte.
For the molecule B1, the Kd was 2.82 nM.

B2 displayed a Kd below 1 nM.

As for B3, the Kd is 4.13 nM.

The molecule B4 had a dissociation constant (Kd) below 1 nM.

Regarding B5, the Kd is 3.95 nM.

In turn, B6 had a Kd of 4.26 nM.

As to B7, the Kd turned out to be 4.86 nM.

As for B8, the Kd was below 1 nM.

B9 came in with a Kd of 8.2 nM.

For the molecule B10, binding was put at a Kd of 2.53 nM.

In the case of B11, the affinity, expressed as Kd, was 6.07 nM.

Molecule B12 showed a Kd of 0.562 nM.

Take B13: the Kd was below 1 nM.

The molecule B14 came in with a Kd of 0.753 nM.

Turning to B15, the affinity, expressed as Kd, was 5.22 nM.

B16 displayed a Kd of 1.9 nM.

The molecule B17 returned a Kd of 10.2 nM.

For the molecule B18, the Kd stood at 2.73 nM.

For a further experiment the target is unchanged. In words: ELISA titration, blocking of GAL3-TIM3; competitor TIM3.
Consider B19, for which the IC50 was 5.6 nM.

Molecule B20 registered an IC50 of 4.1 nM.

In turn, B21 registered an IC50 of 2.8 nM.

Turning to B22, the IC50 was 26.5 nM.

As a reminder, the Kd is the constant that tells how readily two partners part at equilibrium. A lower Kd goes with tighter binding. As usually defined, the IC50 is the concentration needed to halve the response being measured. A low value points to greater potency.

The record behind these values is US20260234269A1 (TRUEBINDING, published 2026).
